The values that follow come from patent publication JP2023014062A (dated 2023).

For test [1], the target named is T1, B.1.1.7変異株(アルファ株又は英国株)のSタンパク質のRBDタンパク質 (SARS-CoV-2 B.1.1.7変異株, UniProt P0DTC2 322-536).
T1 construct: range 322-536
Kind of test: ELISA, RBD coated at 2 μg/ml, Expi293 culture supernatant, HRP anti-human IgG.

Test [2] deals with T2, B.1.351変異株(ベータ株又は南ア株)のSタンパク質のRBDタンパク質 (SARS-CoV-2 B.1.351変異株, UniProt P0DTC2 322-536).
T2 construct: range 322-536
The description is as above.

B1: 抗体NCV2SG53 (antibody, V domains shown)
VH: QVQMVESGGGLVRPGGSLRLSCAASGFTFSDYYMSWIRQAPGKGLEWISYISSSGSSMNYADSVKGRFTISRDNAKNSLFLQMNSLRAEDTAVYYCAREFDLTKIIMVPPYWGQGTLVTVSS
VL: AIQLTQSPSSLSASVGDRVTITCRASQGISSYLAWYQQKPGKAPKVLIYAASTLQSGVPSRFSGSGSGTDFTLTISSLQPEDFATYYCQQLKSYPLTFGGGTKVEIT
B1: the binding result in test [1] and in test [2] was “binds” in each case.
